In one assay the target is five unique clones. Briefly: flow cytometry on cells; yeast cells displaying individual ICab clones with QacA_(D411N)-GFP; percent population shift. In general terms: In flow cytometry, cells or beads pass a laser one at a time.
Assay [1] addresses ICab A4 displayed on the yeast cell surface. Briefly: flow cytometry on cells; yeast cells displaying the ICab incubated with different concentrations of purified QacA_(D411N)-GFP; population shift-based titration; one site-specific binding fit; apparent Kd.
Another assay deals with the identified ICabs. Described as above.
For assay [2], the target named is ICab B7 displayed on the yeast cell surface. The assay is described as above.
The target in the next assay is T1, QacAWT tagged with GFP (Staphylococcus aureus, UniProt P0A0J9).
T1 construct: QacA wild type, 14 transmembrane helix MFS (DHA2) antibacterial efflux antiporter of Staphylococcus aureus; codon-optimized synthetic gene in pBAD-His8; the methods of the spheroplast imaging name only QacA_(D411N)-GFP; also called QacA-GFP; source: on E. coli spheroplasts; not shown: GFP, C-terminal, kept
Briefly: immunostaining of cells or tissue; NHS-Rhodamine labelled ICabs (0.03 mg/ml) added to E. coli spheroplasts expressing GFP-tagged QacA, room temperature 30 min, washed, confocal microscopy. The settings on record: one partner purified.

Results on three molecules are retold here after article PMC10425836, “Cryo‐EM structure of antibacterial efflux transporter QacA from Staphylococcus aureus reveals a novel extracellular loop with allosteric role” (The EMBO Journal, 2023).

B1: QacA_(D411N)-GFP (natural protein)
chain: MISFFTKTTDMMTSKKRWTALVVLAVSLFVVTMDMTILIMALPELVRELEPSGTQQLWIVDIYSLVLAGFIIPLSAFADKWGRKKALLTGFALFGLVSLAIFFAESAEFVIAIRFLLGIAGALIMPTTLSMIRVIFENPKERATALAVWSIASSIGAVFGPIIGGALLEQFSWHSAFLINVPFAIIAVVAGLFLLPESKLSKEKSHSWDIPSTILSIAGMIGLVWSIKEFSKEGLADIIPWVVIVLAITMIVIFVKRNLSSSDPMLDVRLFKKRSFSAGTIAAFMTMFAMASVLLLASQWLQVVEELSPFKAGLYLLPMAIGDMVFAPIAPGLAARFGPKIVLPSGIGIAAIGMFIMYFFGHPLSYSTMALALILVGAGMASLAVASALIMLETPTSKAGNAAAVEESMYNLGNVFGVAVLGSLSSMLYRVFLDISSFSSKGIVGDLAHVAEESVVGAVEVAKATGIKQLANEAVTSFNDAFVATALVGGIIMIIISIVVYLLIPKSLDITKQK
For B1, in the assay with five unique clones, the population shift fell in the range of 65 to 97%. For the same molecule, the Kd was 65 nM in assay [1], 59 nM in the assay with the identified ICabs and 100 nM in assay [2].

B2: ICab A4, purified (VHH)
VHH: QVQLQESGGGSVQTGGSLRLSCAASGYRYSDNCVGWFRQAPGREREAVATYNSGSSTWYADSVKGRFTISQDSAKSTVYLQMNNLKPEDTAMYYCAGRNRLGSYCYMTGDFAYWGQGTQVTVSS
notes: single-domain Indian camelid antibody A4 from a camel immunised with QacA; source: E. coli SHuffle T7, purified (Ni-NTA, SEC)
As to B2, the binding result with QacAWT tagged with GFP is on record as “binds”.

B3: ICab B7, purified (VHH)
VHH: QVQLQESGGGSVQAGGSLRLSCAASGYTNSRKCMGWFRQIPGKEREGVAAIYGFGRGLILYADSVKGRFTISQDNAKNTVYLQMNSLKPEDTAMYYCAADSPGSCLSRSGYNYWGQGTQVTVSS
notes: single-domain Indian camelid antibody B7 from a camel immunised with QacA; source: E. coli SHuffle T7, purified (Ni-NTA, SEC)
With B3, the binding result with QacAWT tagged with GFP is given as “binds”.
